According to article PMC7215387, “Comparison of Target Recognition by TRAF1 and TRAF2” (International Journal of Molecular Sciences, 2020):
Residues, ends and D or L forms follow the SMILES beside them.

What was measured:
TRAF1 F347L mutant [1] = molecular target: T1, TRAF1 F347L mutant (Homo sapiens, UniProt Q13077, F347L); test: Isothermal titration calorimetry (ITC), TRAF1 F347L mutant; assay type: binding; conditions: Supplementary Figure S2a,b
T1 construct: the TRAF1 TRAF domain (amino acid residues 220-416); 6xHis (C); made in house; host or cells: E. coli BL21 (DE3)
T1 sequence (Q13077 220-416 F347L): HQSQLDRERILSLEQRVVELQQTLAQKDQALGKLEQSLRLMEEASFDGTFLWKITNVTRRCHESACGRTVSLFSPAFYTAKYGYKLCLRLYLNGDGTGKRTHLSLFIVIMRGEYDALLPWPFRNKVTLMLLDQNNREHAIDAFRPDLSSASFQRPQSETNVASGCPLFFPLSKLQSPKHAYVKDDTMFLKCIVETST
Excerpt: To understand how TRAF1 binds with higher affinity to TANK and caspase-2, we compared the amino acid sequence of the receptor-binding hot spots on TRAF1 and TRAF2. There are three well-known hot spots in TRAFs (Figure 5a). Based on the sequence comparison, two amino acid residues in TRAF1, F347 of hot spot1 and A369 of hot spot2, were not conserved in TRAF2 (Figure 5b). As the two non-conserved amino acid residues of TRAF1 may generate different conditions for receptor-binding regions and affect its affinity for various receptors, we compared the receptor-binding regions between TRAF1 and TRAF2 by comparing the TRAF1:TANK structure with the TRAF2:latent membrane protein 1 (LMP1) structure (Figure 5c). […] S454 of TRAF2 was not critical for the formation of an H-bond cluster, unlike residues S453 and S455, which were closely located to the Q at the P0 position of the receptor peptide. […] However, F347 on TRAF1 (corresponding to L432 on TRAF2) was critical for determining receptor preference and binding affinity by contributing to the formation of a stable hydrophobic pocket in the hot spot1 motif.
A NanoITC (TA Instruments) was used for isothermal titration calorimetry experiments. […] Binding isotherms were analyzed by using the software provided by TA Instruments. […]

TRAF1 F347L mutant [2] = molecular target: TRAF1 F347L mutant (UniProt Q13077); test: ITC; NanoITC; peptide (1 mM) injected into the cell with TRAF domain (~20 uM); PBS; 15 °C; 25 injections; single site model
[3] = molecular target: T2, TRAF2 TRAF domain (amino acid residues 305-501) (UniProt Q12933 305-501); test: as above; conditions: both partners purified
T2 construct: TRAF2 (TNF receptor-associated factor 2), TRAF domain, residues 305-501; it speaks of 'the three subunits of TRAF2'; source: E. coli BL21 (DE3), purified (Ni-NTA, SEC); not shown: His6, C-terminal, kept
T2 sequence (looked up): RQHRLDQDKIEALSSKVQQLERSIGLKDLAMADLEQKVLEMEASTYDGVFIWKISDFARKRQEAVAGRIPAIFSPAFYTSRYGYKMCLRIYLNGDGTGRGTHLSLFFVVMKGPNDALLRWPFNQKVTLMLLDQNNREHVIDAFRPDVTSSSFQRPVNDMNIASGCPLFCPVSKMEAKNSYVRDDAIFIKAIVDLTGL

[4] = molecular target: T3, TRAF1 TRAF domain (amino acid residues 220-416) (UniProt Q13077 220-416); test: as above; conditions: both partners purified
T3 construct: TRAF1 (TNF receptor-associated factor 1), TRAF domain, residues 220-416; it speaks of 'trimeric TRAF1'; source: E. coli BL21 (DE3), purified (Ni-NTA, SEC); not shown: His6, C-terminal, kept
T3 sequence (looked up): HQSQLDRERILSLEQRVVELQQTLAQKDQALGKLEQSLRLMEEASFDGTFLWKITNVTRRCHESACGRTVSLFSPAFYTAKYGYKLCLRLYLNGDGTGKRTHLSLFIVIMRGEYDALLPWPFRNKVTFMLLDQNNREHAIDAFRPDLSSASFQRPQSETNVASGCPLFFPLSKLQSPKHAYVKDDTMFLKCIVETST

[5] = molecular target: T2, TRAF2 TRAF domain (amino acid residues …); test: SPR; Biacore T200; His-tagged TRAF domain held on Ni-NTA chip; TRADD-N 0.39-3.125 uM flowed over in PBS, 30 uL/min; conditions: both partners purified
[6] = molecular target: T3, TRAF1 TRAF domain (amino acid residues …); test: as above; conditions: both partners purified
TRAF2 S454A mutant = TRAF2 S454A mutant (UniProt Q12933); test: ITC; TRADD with TRAF2 S454A mutant; who was titrated and conditions not told for this experiment

## CC[C@H](C)[C@H](NC(=O)[C@@H]1CCCN1C(=O)[C@@H](NC(=O)[C@@H](N)CO)C(C)C)C(=O)N[C@@H](CCC(N)=O)C(=O)N[C@@H](CS)C(=O)N[C@H](C(=O)N[C@@H](CC(=O)O)C(=O)N[C@@H](CCCCN)C(=O)N[C@H](C(=O)O)[C@@H](C)O)[C@@H](C)O [TANK] (H-SVPIQCTDKT-OH)
TRAF1 F347L mutant [1]
  Kd: ~15 µM

## TAQEM (source: synthetic peptide (Peptron)) [caspase-2 peptide (TAQEM)]
TRAF1 F347L mutant [2]
  Kd: 265 µM
[3]
  Kd: 117 µM
[4]
  Kd: 86.9 µM

B1: N-terminal domain of TRADD (TRADD-N, amino acid residues 1-163) (domain or fragment, UniProt Q15628 1-163, looked up)
chain: MAAGQNGHEEWVGSAYLFVESSLDKVVLSDAYAHPQQKVAVYRALQAALAESGGSPDVLQMLKIHRSDPQLIVQLRFCGRQPCGRFLRAYREGALRAALQRSLAAALAQHSVPLQLELRAGAERLDALLADEERCLSCILAQQPDRLRDEELAELEDALRNLK
notes: TRADD (tumor necrosis factor receptor type 1-associated death domain protein), N-terminal domain, residues 1-163; Cloned into pET24a by NdeI and XhoI; source: E. coli, purified (almost identical to the method for TRAF1 and TRAF2; SEC in 20 mM Tris-HCl pH 8.0, 150 mM NaCl)
[5]
  Kd: 0.018 µM
[6]
  Kd: 0.082 µM
TRAF2 S454A mutant
  Kd: 0.055 µM

## SVPIQCTDKT (source: synthetic peptide (Peptron)) [TANK peptide (SVPIQCTDKT)]
[3]
  Kd: 11.7 µM
[4]
  Kd: 2.5 µM
